Where a chain is given by its changes, count along the chain named. Names and notes keep the numbering of the source. Where two headings read alike, the source gives them in different places. Each block holds one molecule with its values, some of them ahead of it.
Assays:
[1] = biological target: p62 PH domain (Homo sapiens) (UniProt P32780); settings: cited from earlier work
[2] = biological target: p62 PH domain (Homo sapiens) (UniProt P32780); settings: cited from earlier work; remark: listed apart in the source
[3] = biological target: p62 (Tfb1) PH domain (Saccharomyces cerevisiae) (UniProt P32776); settings: cited from earlier work
[4] = biological target: p62 PH domain (Homo sapiens) (UniProt P32780); settings: cited from earlier work; remark: listed apart in the source
[5] = biological target: T1, PH domain (1–115) of TFIIH p62 subunit (S. cerevisiae, UniProt P32776 1-115); test: BLI; Octet K2; GST-Elf1-CTD immobilised on GST-specific biosensors; PH domain of p62 at 30, 15, 7.5, 3.75 and 0 µM; 20 mM Tris-HCl pH 7.5, 5% glycerol, 1 mM DTT; association 2 min, dissociation 3 min; settings: both partners purified
T1 construct: also called PH domain of p62; p62 PH domain; source: E. coli Rosetta 2(DE3), purified (Glutathione Sepharose, released by PreScission protease cleavage)
T1 sequence (looked up): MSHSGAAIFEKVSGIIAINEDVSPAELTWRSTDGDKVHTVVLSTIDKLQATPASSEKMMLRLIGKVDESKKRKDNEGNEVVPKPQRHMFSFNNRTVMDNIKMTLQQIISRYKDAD

[6] = biological target: T1, PH domain (1–115) of TFIIH p62 subunit; test: pull-down; GST beads with GST-tagged Elf1 proteins mixed with purified PH domain of p62; 23 °C, 1 h; washed twice in 20 mM HEPES pH 7.4, 5% glycerol; SDS-PAGE; settings: both partners purified

Chain of p62 PH domain (Homo sapiens) (P32780 1-108): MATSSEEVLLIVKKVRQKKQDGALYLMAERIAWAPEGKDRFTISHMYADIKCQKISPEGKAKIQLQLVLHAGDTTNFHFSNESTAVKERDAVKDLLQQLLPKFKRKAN

Molecule: UVSSA TIR (from UniProt Q2YD98)
Kd [1]: 71 nM

Molecule: DP1 TIR (from UniProt Q14186)
Kd [2]: 35300 nM

Molecule: Rad4 TIR (from UniProt P14736)
Kd [3]: 50 nM

Molecule: TFIIEα TIR (from UniProt P29083)
Kd [4]: 45 nM

Kd [5]: 3820 nM
B1: GST-Elf1-CTD (residues 85–145) (domain or fragment, S. cerevisiae, UniProt P36053 85-145, looked up)
chain: GSDTDDGDEGSDSDYESDSEQDAKTQNDGEIDSDEEEVDSDEERIGQVKRGRGALVDSDDE
notes: also called WT CTD; Elf1 C-terminal domain; source: E. coli Rosetta 2(DE3), purified (Glutathione Sepharose, Superdex 200)

Kd [5]: 7320 nM
B2: GST-Elf1-CTD Y99A mutant (residues 85–145) (domain or fragment, S. cerevisiae, UniProt P36053 85-145, looked up)
chain: B1 chain with Y15A
notes: also called Y99A GST-Elf1-CTD; Y99A mutant CTD; source: E. coli Rosetta 2(DE3), purified (Glutathione Sepharose, Superdex 200)

binding result [6]: binds
B3: GST-Elf1-CTD I115A (residues 85–145) (domain or fragment, S. cerevisiae, UniProt P36053 85-145, looked up)
chain: B1 chain with I31A
notes: also called I115A control; source: E. coli Rosetta 2(DE3), purified (Glutathione Sepharose, Superdex 200)

binding result [6]: binds
B4: GST-Elf1 residues 85–113 (domain or fragment, S. cerevisiae, UniProt P36053 85-113, looked up)
chain: GSDTDDGDEGSDSDYESDSEQDAKTQNDG
notes: elongation factor-1 (Elf1), S. cerevisiae, residues 85-113 (truncated CTD); source: E. coli Rosetta 2(DE3), purified (Glutathione Sepharose, Superdex 200)

binding result [6]: binds
B5: GST-Elf1 residues 85–122 (domain or fragment, S. cerevisiae, UniProt P36053 85-122, looked up)
chain: GSDTDDGDEGSDSDYESDSEQDAKTQNDGEIDSDEEEV
notes: source: E. coli Rosetta 2(DE3), purified (Glutathione Sepharose, Superdex 200)
